Measured values taken from US20220010021A1 (Sanofi, published 2022).
Positions count from the first letter of the chain named. Names and notes keep the numbering of the source.

B1: Ab0428 (antibody, human IgG1, lambda)
heavy: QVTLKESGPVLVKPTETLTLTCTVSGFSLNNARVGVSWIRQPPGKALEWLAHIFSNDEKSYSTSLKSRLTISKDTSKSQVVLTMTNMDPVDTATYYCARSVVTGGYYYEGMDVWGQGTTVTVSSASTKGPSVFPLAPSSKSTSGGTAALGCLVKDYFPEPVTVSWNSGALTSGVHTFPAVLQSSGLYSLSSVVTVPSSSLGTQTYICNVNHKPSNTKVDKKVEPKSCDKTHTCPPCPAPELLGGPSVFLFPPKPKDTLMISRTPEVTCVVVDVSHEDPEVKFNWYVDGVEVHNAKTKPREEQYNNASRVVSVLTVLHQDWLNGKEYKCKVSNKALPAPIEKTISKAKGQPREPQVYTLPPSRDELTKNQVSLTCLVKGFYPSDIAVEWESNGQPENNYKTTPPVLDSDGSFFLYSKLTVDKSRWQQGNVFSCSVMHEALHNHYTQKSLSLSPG
light: SYVLTQPPSVSVAPGQTARITCGGSNIGSESVHWYQQKPGQAPVLVVYSESDRPSGIPERFSGSNSGNTATLTISRVEAGDEADYYCQVWEGESDHVVFGGGTKLTVLGQPKANPTVTLFPPSSEELQANKATLVCLISDFYPGAVTVAWKADGSPVKAGVETTKPSKQSNNKYAASSYLSLTPEQWKSHRSYSCQVTHEGSTVEKTVAPTECS
B2: Ab0430 (antibody, human IgG1, lambda)
heavy: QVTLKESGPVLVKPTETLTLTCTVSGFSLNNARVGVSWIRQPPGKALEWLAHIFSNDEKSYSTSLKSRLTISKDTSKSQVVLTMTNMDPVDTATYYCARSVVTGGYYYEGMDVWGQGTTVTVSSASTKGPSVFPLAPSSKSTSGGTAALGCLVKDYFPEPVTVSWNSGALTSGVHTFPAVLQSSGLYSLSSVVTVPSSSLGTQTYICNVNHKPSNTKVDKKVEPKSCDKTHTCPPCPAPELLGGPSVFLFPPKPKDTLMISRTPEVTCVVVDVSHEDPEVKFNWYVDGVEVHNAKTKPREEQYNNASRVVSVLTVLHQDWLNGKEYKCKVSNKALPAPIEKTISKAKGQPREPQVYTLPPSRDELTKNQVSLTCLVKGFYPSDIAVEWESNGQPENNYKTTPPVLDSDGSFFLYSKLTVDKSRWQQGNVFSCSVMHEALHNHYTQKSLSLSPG
light: B1 light with S49E
B3: Ab0429 (antibody, human IgG1, lambda)
heavy: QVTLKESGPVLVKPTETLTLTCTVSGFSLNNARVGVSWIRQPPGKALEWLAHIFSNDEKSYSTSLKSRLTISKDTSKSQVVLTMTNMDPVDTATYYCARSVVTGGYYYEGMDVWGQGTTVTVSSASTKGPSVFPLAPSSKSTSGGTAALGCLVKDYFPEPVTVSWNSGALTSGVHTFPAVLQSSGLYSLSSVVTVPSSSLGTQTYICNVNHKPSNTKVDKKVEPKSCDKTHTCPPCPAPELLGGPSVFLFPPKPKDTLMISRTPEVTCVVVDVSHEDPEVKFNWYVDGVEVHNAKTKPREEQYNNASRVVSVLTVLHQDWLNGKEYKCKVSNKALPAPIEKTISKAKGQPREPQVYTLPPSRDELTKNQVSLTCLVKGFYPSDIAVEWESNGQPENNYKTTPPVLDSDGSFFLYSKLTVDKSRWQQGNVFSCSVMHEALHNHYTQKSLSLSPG
light: B1 light with E50A
B4: Ab0334 (antibody, IgG4, V domains shown)
VH: QVTLKESGPVLVKPTETLTLTCTVSGFSLNNARVGVSWIRQPPGKALEWLAHIFSNDEKSYSTSLKSRLTISKDTSKSQVVLTMTNMDPVDTATYYCARSVVTGGYYYEGMDVWGQGTTVTVSS
VL: SYVLTQPPSVSVAPGQTARITCGGSNIGSESVHWYQQKPGQAPVLVVYSASDRPSGIPERFSGSNSGNTATLTISRVEAGDEADYYCQVWAGSSDHVVFGGGTKLTVLG
B5: Ab0359 (antibody, IgG4, V domains shown)
VH: B4 VH
VL: B4 VL with S49E, A50H
B6: Ab0463 (antibody, IgG4, V domains shown)
VH: B4 VH with N30S, N31Y
VL: B4 VL with S49E, A50E, A91E, S93E
B7: Ab0363 (antibody, IgG4, V domains shown)
VH: B4 VH
VL: B4 VL with S25A, S93A
B8: Ab0456 (antibody, IgG4, V domains shown)
VH: B4 VH with N30T, N31Y
VL: B4 VL with A50E, A91E, S93E
B9: Ab0453 (antibody, IgG4, V domains shown)
VH: B4 VH with N30S
VL: B4 VL with A50E, A91E, S93E
B10: Ab0362 (antibody, IgG4, V domains shown)
VH: B4 VH
VL: B4 VL with S49T, A50E
B11: Ab0346 (antibody, IgG4, V domains shown)
VH: B4 VH
VL: B4 VL with S49A, A50H
B12: Ab0454 (antibody, IgG4, V domains shown)
VH: B4 VH with N30T
VL: B4 VL with A50E, A91E, S93E
B13: Ab0464 (antibody, IgG4, V domains shown)
VH: B4 VH with N30T, N31Y
VL: B4 VL with S49E, A50E, A91E, S93E
B14: Ab0462 (antibody, IgG4, V domains shown)
VH: B4 VH with N30T
VL: B4 VL with S49E, A50E, A91E, S93E
B15: Ab0356 (antibody, IgG4, V domains shown)
VH: B4 VH
VL: B4 VL with S49E
B16: Ab0341 (antibody, IgG4, V domains shown)
VH: B4 VH
VL: B4 VL with S49A, A50Y
B17: Ab0348 (antibody, IgG4, V domains shown)
VH: B4 VH
VL: B4 VL with S49E, A50E, A91T, S93E
B18: 16H7 light chain variant D95G (antibody, IgG4, V domains shown)
VH: not shown
VL: B4 VL with S25N, S49D, A50D, A91D, S93N, D95G
B19: Ab0461 (antibody, IgG4, V domains shown)
VH: B4 VH with N30S
VL: B4 VL with S49E, A50E, A91E, S93E
B20: Ab0342 (antibody, IgG4, V domains shown)
VH: B4 VH
VL: B4 VL with S49A, S93E
B21: Ab0423 (antibody, IgG4, V domains shown)
VH: B4 VH
VL: B4 VL with A50S, A91E, S93A
B22: Ab0365 (antibody, IgG4, V domains shown)
VH: B4 VH
VL: B4 VL with S25A, S49T, A50E
B23: Ab0339 (antibody, IgG4, V domains shown)
VH: B4 VH
VL: B4 VL with S49A, A50E
B24: 16H7 light chain variant H33P (antibody, IgG4, V domains shown)
VH: not shown
VL: B4 VL with S25N, H33P, S49D, A50D, A91D, S93N
B25: Ab0349 (antibody, IgG4, V domains shown)
VH: B4 VH
VL: B4 VL with S49E, A50E, A91T
B26: Ab0336 (antibody, IgG4, V domains shown)
VH: B4 VH
VL: B4 VL with A50H
B27: Ab0424 (antibody, IgG4, V domains shown)
VH: B4 VH
VL: B4 VL with A50S, A91H, S93A
B28: Ab0458 (antibody, IgG4, V domains shown)
VH: B4 VH with N30T
VL: B4 VL with A91E, S93E
B29: Ab0459 (antibody, IgG4, V domains shown)
VH: B4 VH with N30S, N31Y
VL: B4 VL with A91E, S93E
B30: Ab0343 (antibody, IgG4, V domains shown)
VH: B4 VH
VL: B4 VL with S49A
B31: 16H7 light chain variant D95P (antibody, IgG4, V domains shown)
VH: not shown
VL: B4 VL with S25N, S49D, A50D, A91D, S93N, D95P
B32: 16H7 light chain variant D95W (antibody, IgG4, V domains shown)
VH: not shown
VL: B4 VL with S25N, S49D, A50D, A91D, S93N, D95W
B33: 16H7 light chain variant V32P (antibody, IgG4, V domains shown)
VH: not shown
VL: B4 VL with S25N, V32P, S49D, A50D, A91D, S93N
B34: Ab0347 (antibody, IgG4, V domains shown)
VH: B4 VH
VL: B4 VL with S49A, A50S
B35: Ab0457 (antibody, IgG4, V domains shown)
VH: B4 VH with N30S
VL: B4 VL with A91E, S93E
B36: Ab0455 (antibody, IgG4, V domains shown)
VH: B4 VH with N30S, N31Y
VL: B4 VL with A50E, A91E, S93E
B37: 16H7 light chain variant D95C (antibody, IgG4, V domains shown)
VH: not shown
VL: B4 VL with S25N, S49D, A50D, A91D, S93N, D95C
B38: Ab0460 (antibody, IgG4, V domains shown)
VH: B4 VH with N30T, N31Y
VL: B4 VL with A91E, S93E
B39: 16H7 light chain variant D95S (antibody, IgG4, V domains shown)
VH: not shown
VL: B4 VL with S25N, S49D, A50D, A91D, S93N, D95S
B40: 16H7 light chain variant D49A (antibody, IgG4, V domains shown)
VH: not shown
VL: B4 VL with S25N, S49A, A50D, A91D, S93N
B41: 16H7 light chain variant S94K (antibody, IgG4, V domains shown)
VH: not shown
VL: B4 VL with S25N, S49D, A50D, A91D, S93N, S94K
B42: 16H7 light chain variant D50K (antibody, IgG4, V domains shown)
VH: not shown
VL: B4 VL with S25N, S49D, A50K, A91D, S93N

How the values were obtained:
[1] = target: human FGFR1c + KLB receptor complex on HEK293 iLite FGF21 reporter cells (human, UniProt P11362 22-822; Q86Z14 1-1044); experiment: cell-based or functional assay
[2] = target: cell surface receptor composed of FGFR1c and co-receptor beta-Klotho (KLB) (human, UniProt P11362 22-822; Q86Z14 1-1044); experiment: cell-based or functional assay; as to Mean E max, Luciferase reporter gene assay: reference of the scale not given here
Sequence of cell surface receptor composed of FGFR1c and co-receptor beta-Klotho (KLB) (P11362 22-822, chain 1 of 2): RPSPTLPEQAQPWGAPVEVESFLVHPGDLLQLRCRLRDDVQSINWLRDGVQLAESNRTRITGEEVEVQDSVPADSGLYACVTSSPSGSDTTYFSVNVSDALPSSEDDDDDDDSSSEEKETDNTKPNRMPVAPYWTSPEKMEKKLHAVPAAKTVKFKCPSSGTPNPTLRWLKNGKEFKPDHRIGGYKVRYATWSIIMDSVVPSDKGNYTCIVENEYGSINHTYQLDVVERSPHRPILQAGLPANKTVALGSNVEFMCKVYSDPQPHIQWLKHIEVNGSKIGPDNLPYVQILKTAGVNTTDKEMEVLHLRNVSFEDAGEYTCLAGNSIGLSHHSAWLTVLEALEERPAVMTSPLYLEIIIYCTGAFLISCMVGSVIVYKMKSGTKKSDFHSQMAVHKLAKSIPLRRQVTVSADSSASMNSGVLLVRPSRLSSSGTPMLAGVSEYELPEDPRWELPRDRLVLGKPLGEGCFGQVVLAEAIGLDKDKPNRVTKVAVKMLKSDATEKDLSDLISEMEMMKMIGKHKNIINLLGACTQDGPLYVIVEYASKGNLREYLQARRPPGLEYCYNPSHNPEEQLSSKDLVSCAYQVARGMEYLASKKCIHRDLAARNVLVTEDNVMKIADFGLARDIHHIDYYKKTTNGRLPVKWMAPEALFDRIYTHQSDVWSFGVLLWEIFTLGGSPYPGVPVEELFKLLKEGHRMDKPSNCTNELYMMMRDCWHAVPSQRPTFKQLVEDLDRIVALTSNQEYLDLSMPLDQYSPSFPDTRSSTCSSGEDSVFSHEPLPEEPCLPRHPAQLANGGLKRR
Sequence of cell surface receptor composed of FGFR1c and co-receptor beta-Klotho (KLB) (Q86Z14 whole entry, chain 2 of 2): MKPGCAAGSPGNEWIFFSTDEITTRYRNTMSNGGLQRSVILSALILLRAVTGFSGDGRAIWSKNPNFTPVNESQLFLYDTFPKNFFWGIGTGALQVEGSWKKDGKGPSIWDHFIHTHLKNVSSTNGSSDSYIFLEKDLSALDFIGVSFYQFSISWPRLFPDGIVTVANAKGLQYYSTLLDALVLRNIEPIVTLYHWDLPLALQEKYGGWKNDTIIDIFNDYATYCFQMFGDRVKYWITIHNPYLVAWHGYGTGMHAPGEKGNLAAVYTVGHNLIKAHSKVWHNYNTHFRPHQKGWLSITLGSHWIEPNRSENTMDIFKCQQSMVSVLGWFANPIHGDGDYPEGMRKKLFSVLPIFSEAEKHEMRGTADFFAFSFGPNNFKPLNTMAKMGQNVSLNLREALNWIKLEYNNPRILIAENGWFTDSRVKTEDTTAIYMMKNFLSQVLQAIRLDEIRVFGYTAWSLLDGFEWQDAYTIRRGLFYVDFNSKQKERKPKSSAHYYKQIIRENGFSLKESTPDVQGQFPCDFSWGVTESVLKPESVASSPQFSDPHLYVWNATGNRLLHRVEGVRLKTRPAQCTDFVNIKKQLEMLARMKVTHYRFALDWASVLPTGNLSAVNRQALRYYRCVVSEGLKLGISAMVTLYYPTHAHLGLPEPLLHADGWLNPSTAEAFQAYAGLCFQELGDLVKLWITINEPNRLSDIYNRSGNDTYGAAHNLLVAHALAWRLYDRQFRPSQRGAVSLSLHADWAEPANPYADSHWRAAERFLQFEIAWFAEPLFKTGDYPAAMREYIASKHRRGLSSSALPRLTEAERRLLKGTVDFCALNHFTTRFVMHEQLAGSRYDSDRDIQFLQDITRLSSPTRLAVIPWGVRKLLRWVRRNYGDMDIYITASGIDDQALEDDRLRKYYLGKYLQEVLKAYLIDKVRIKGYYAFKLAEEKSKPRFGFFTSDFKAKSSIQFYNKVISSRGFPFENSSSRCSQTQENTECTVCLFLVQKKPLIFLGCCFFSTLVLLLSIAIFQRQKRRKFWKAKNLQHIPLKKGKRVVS

Sequence of human FGFR1c + KLB receptor complex on HEK293 iLite FGF21 reporter cells (P11362 22-822, chain 1 of 2): as the sequence (P11362 22-822, chain 1 of 2) above
Sequence of human FGFR1c + KLB receptor complex on HEK293 iLite FGF21 reporter cells (Q86Z14 whole entry, chain 2 of 2): as the sequence (Q86Z14 whole entry, chain 2 of 2) above

Binder | EC50 [1] [nM] | Emax [1] [%] | Mean E max, Luciferase reporter gene assay [2] [%] | Mean EC50, Luciferase reporter gene assay [2] [nM]
B1 | 0.03 | 1280 | – | –
B2 | 0.03 | 1100 | – | –
B3 | 0.04 | 1290 | – | –
B4 | 1.02 | 718 | – | –
B5 | 2.53 | 550 | – | –
B6 | 0.05 | 951 | – | –
B7 | 0.48 | 736 | – | –
B8 | 0.07 | 1080 | – | –
B9 | 0.03 | 1400 | – | –
B10 | 11.6 | 662 | – | –
B11 | 2.25 | 532 | – | –
B12 | 0.03 | 1390 | – | –
B13 | 0.02 | 910 | – | –
B14 | 0.03 | 1340 | – | –
B15 | 5.35 | 620 | – | –
B16 | 1.4 | 528 | – | –
B17 | 0.53 | 641 | – | –
B18 | – | – | 47 | 6.56
B19 | 0.02 | 1390 | – | –
B20 | 0.34 | 775 | – | –
B21 | 0.05 | 1510 | – | –

Binder | EC50 [1] [nM] | Emax [1] [%] | Mean E max, Luciferase reporter gene assay [2] [%] | Mean EC50, Luciferase reporter gene assay [2] [nM]
B22 | 0.85 | 583 | – | –
B23 | 2.16 | 545 | – | –
B24 | – | – | 90 | 0.253
B25 | 10.7 | 511 | – | –
B26 | 2.91 | 576 | – | –
B27 | 0.07 | 1390 | – | –
B28 | 0.02 | 1430 | – | –
B29 | 0.04 | 1110 | – | –
B30 | 1.37 | 482 | – | –
B31 | – | – | 4 | –
B32 | – | – | 5 | –
B33 | – | – | 85 | 0.164
B34 | 0.24 | 695 | – | –
B35 | 0.02 | 1520 | – | –
B36 | 0.07 | 1020 | – | –
B37 | – | – | 4 | –
B38 | 0.05 | 1050 | – | –
B39 | – | – | 37 | –
B40 | – | – | 100 | 0.106
B41 | – | – | 104 | 0.185
B42 | – | – | 109 | –
